Data on one molecule can be found in patent publication US12692310B2, “ASIC1 channel antagonist antibody” (ShanghaiTech University, priority 2019, dated 2026).

The target in experiment [1] is T1, hASIC1a-ECD (Homo sapiens, UniProt P78348).
T1 construct: The ectodomain of hASIC1a (hASIC1a-ECD) with an N-terminal fused IL-2 tag and Flag tag; IL-2 tag (N); made in house; host or cells: HEK293F
T1 sequence (P78348 67-427 limits assumed): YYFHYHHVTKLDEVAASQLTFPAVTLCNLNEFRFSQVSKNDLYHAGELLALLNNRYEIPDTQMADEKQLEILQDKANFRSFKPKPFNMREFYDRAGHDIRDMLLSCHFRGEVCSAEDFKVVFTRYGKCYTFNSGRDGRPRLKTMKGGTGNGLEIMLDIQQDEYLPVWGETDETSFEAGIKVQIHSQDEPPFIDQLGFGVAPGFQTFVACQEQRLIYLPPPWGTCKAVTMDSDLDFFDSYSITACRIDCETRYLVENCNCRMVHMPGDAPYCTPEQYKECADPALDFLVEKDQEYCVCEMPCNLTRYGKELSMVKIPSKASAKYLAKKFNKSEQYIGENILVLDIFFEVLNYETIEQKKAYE
The experiment can be described thus: Negative stain electron microscopy of hASIC1a-ECD/ASC06-Fab complex. To be noted: negative staining EM. Here is the method: (§1) Negative Stain Electron Microscopy (EM): (1) Sample Preparation and Data Collection. The antigen-binding fragment of ASC06-IgG1 (ASC06-Fab) was prepared by digesting ASC06-IgG1 with papain followed by protein A affinity purification and gel filtration. The ectodomain of hASIC1a (hASIC1a-ECD) with an N-terminal fused IL-2 tag and Flag tag was expressed in HEK293F cells and purified by anti-Flag M2 magnetic beads and gel filtration using PBS buffer, pH 7.4. The ASC06-Fab and hASIC1a-ECD were incubated at a molar ratio of 3:1 in PBS buffer, pH 7.4, overnight at 4° C. to form a tertiary complex. This complex was further isolated by gel filtration. […] The peak fractions containing this complex were collected and subjected to negative staining EM.
The EM samples were prepared by diluting the purified complex of hASIC1a-ECD and ASC06-Fab to 0.01 mg/mL. […]
All micrographs were recorded with a Tecnai G2 Spirit transmission electron microscope (FEI) equipped with an LaB6 cathode operated at 120 kV and a 4,000×4,000 Eagle CCD camera at a calibrated magnification of 67,000 times, resulting in a pixel size of 1.74 Å.
EMI mage Processing and 3D Reconstruction. […] All of the recorded micrographs were first decimated twofold (resulting in a pixel size of 3.48 Å). […]

Experiment [2] has as its target T1, hASIC1a-ECD. Nature of the experiment: Gel filtration of hASIC1a-ECD and ASC06-Fab complex. The experiment is classed as binding. To be noted: Superdex 200. Here is the method:
as §1
To understand the nature of binding of ASC06 to hASIC1a, a complex was formed by mixing hASIC1a-ECD and ASC06-Fab. The complex, hASIC1a-ECD and ASC06-Fab were resolved using gel filtration.

B1: ASC06-Fab: antigen-binding fragment of ASC06-IgG1 prepared by digesting ASC06-IgG1 with papain (antibody, V domains shown)
VH: QVQLQQSGGGLVQPGGSLRLSCAASGFTFSSYAMSWVRQAPGKGLEWVSAISGSGGSTYYADSVKGRFTISRDNSKNTLYLQMNSLRAEDTAVYYCAKDSFYGYSKGDWGQGTLVTVSS
VL: QSALTQPASVSGSPGQSITISCTGTSSDVGAYNYVSWYQQQPGKAPKLMIYGVSNRPSGVSNRFSGSKSGNAASLTISGLQAEDEADYYCSSYTSSSTYVFGTGTKLTVLG
Take B1: the location of epitope entry with hASIC1a-ECD [1] is listed as “located on a surface formed by two hASIC1a-ECD subunits”. Besides, the “complex formation with hASIC1a-ECD homotrimer” value with hASIC1a-ECD [2] was “formed a stable complexes”.
